Residue numbers refer to the chain shown, from its start.

The target in assay [1] is T1, recombinant human FAP (R&D systems) (human, UniProt Q12884 26-760).
T1 construct: Bought protein amine-coupled at low density on a CM5 chip for SPR; also called rhuFAP; rFAP
T1 sequence (looked up): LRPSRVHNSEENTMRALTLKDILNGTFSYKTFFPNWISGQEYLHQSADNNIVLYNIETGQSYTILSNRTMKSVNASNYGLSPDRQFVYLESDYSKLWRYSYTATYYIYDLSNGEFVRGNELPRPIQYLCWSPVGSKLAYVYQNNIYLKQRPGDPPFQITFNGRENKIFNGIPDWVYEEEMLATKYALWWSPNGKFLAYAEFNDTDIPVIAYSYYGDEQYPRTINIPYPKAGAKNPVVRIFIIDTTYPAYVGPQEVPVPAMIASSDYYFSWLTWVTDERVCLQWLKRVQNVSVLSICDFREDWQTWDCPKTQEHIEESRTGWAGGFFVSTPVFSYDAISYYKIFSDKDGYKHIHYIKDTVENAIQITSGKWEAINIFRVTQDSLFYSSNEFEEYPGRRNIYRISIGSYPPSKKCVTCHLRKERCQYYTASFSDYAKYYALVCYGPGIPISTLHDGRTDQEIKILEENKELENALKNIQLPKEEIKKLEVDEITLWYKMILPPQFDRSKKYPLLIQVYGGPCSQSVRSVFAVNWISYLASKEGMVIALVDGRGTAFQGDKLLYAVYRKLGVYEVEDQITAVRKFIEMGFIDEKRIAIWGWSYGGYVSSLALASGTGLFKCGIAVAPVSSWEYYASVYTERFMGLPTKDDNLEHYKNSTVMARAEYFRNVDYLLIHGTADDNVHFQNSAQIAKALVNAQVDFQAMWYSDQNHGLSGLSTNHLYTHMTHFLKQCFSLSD
The assay can be described thus: SPR (BIAcore T100), Fab injected over rhuFAP on a low-density CM5 chip. As to the method:
(§1) Binding analysis of Fabs to recombinant FAP (R&D systems) was performed on a BIAcore T100 instrument. rFAP was immobilized at low density on a CM5 sensor chip using amine coupling chemistry. […] Analysis of the binding curves and determination of rate constants was done using the nonlinear data analysis program BIAevaluation.
Background: In SPR one partner is held on a chip, and binding of the other changes the refractive index at the surface.

In assay [2] the target is T2, murine FAP expressed on HEK293 cells (mouse, UniProt P97321 1-761).
T2 construct: whole, on cells; Also used as cell lysate in ELISA; also called muFAP; mouse FAP
T2 sequence (looked up): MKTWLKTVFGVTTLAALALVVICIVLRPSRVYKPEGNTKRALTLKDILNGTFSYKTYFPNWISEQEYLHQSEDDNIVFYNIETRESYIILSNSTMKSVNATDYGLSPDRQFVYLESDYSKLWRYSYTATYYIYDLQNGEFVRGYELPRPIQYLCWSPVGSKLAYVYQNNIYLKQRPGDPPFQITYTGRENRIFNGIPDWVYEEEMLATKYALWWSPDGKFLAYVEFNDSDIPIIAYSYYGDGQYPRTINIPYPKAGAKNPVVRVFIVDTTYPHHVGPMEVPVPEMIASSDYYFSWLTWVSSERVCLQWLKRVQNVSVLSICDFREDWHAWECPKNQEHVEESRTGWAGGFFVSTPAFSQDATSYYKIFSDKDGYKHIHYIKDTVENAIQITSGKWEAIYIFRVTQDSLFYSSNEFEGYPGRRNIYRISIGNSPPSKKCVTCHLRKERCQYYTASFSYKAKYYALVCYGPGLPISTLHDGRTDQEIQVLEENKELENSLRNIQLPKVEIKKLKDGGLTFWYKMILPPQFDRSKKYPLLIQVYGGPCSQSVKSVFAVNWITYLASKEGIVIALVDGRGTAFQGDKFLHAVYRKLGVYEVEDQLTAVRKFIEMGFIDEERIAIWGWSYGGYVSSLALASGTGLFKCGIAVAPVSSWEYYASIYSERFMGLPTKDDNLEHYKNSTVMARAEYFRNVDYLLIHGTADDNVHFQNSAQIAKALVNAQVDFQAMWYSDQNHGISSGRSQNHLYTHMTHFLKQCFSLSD
The assay can be described thus: flow cytometry, serial dilutions on 293 muFAP+ cells (apparent KD). On the procedure: The cells were then washed once with PBS, fixed for 20 min with 2% PFA on ice and bound antibody was detected with PE-conjugated anti-human IgG F(ab)′₂ (Jackson Immuno Research 109-116-097). Cells were analyzed on a FACScan (BD) cytometer and data was analysed with FlowJo. The apparent Kapp was calculated by fitting a dose-response curve using the following equitation f=Bmax*abs(x)/(Kd+abs(x))+Ns*x using SigmaPlot software (Systat Software Inc.).
Background: In flow cytometry, cells or beads pass a laser one at a time.

In assay [3] the target is T1, recombinant human FAP (R&D systems). The assay can be described thus: SPR (BIAcore), Fab 6.25-200 nM injected over rhuFAP on a CM5 chip, heterogeneous ligand model [box under the right panel]. As to the method: (§2) Purified Fabs were injected at the concentrations indicated in the figure on a rhuFAP-coated CM5 sensor chip. Values were corrected for binding to the reference flow cell. The black solid lines represent the theoretical curves for each Fab concentration calculated according to the heterogeneous ligand model and the indicated rate and affinity constants.
as §1

For assay [4], the target named is T3, human DPPIV/CD26 expressed on HEK293 cells (human, UniProt P27487 1-766).
T3 construct: whole, on cells; also called huCD26; dipeptidyl peptidase IV
The assay can be described thus: ELISA, Fab at 100 nM on plates coated with cell lysate. In general terms: ELISA stands for enzyme-linked immunosorbent assay.

Assay [5] deals with T4, human Fibroblast Activation Protein (FAP) expressed on cells (human, UniProt Q12884 1-760).
T4 construct: whole, on cells; also called huFAP; human FAP
T4 sequence (looked up): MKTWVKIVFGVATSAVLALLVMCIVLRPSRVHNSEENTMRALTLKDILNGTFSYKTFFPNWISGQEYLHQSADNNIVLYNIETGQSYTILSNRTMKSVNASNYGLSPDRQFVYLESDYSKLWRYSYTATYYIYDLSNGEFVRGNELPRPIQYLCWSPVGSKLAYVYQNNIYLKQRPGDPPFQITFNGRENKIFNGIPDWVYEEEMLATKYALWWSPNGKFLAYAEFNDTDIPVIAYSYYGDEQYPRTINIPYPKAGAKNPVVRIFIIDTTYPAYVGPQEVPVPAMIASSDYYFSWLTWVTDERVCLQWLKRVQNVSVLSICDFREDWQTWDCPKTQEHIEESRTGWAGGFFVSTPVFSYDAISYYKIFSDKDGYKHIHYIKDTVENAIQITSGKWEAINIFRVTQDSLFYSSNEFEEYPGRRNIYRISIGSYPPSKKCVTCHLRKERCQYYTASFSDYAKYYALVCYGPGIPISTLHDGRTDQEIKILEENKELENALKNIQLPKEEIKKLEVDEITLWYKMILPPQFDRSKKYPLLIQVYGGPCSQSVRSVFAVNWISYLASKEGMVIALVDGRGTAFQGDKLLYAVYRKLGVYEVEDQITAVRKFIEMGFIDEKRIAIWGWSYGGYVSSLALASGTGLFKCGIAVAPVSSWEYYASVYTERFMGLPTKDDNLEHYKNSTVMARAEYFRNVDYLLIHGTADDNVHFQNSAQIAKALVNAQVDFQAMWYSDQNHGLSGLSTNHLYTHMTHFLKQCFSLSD
The assay can be described thus: flow cytometry, serial dilutions on human FAP expressing cells (apparent KD).

Assay [6] addresses T1, recombinant human FAP (R&D systems). The assay can be described thus: SPR (BIAcore), Fab 0.5-16 nM injected over rhuFAP on a CM5 chip, heterogeneous ligand model [box under the left panel]. On the procedure: as §2, §1

T3 sequence (P27487 whole entry): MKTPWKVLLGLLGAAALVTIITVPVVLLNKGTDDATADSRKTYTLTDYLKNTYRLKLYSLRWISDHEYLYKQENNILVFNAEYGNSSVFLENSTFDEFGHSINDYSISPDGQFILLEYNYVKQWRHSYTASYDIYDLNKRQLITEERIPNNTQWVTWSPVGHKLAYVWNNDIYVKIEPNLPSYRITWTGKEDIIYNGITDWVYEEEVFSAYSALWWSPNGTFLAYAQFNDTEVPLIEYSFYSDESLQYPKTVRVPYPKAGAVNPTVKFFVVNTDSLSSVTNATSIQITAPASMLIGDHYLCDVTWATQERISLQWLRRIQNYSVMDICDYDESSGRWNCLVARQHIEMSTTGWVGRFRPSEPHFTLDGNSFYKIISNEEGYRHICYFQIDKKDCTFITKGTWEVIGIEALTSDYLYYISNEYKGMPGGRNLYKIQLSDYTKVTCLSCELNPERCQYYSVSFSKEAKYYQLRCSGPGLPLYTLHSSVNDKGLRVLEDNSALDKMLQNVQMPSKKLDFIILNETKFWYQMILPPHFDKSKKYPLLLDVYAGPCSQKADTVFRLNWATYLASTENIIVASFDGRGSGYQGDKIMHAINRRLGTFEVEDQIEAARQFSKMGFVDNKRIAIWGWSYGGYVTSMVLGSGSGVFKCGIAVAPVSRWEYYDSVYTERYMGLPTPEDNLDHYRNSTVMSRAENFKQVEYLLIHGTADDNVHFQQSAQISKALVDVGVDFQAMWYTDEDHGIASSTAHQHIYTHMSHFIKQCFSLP

B1: ESC14 Fab fragment (Fab, V domains shown)
VH: EVQLVQSGAEVKKPGASVKVSCKASGYTFTSYGISWVRQAPGQGLEWMGWISAYNGNTNYAQKLQGRVTMTTDTSTSTAYMELRSLRSDDTAVYYCARDWSRSGYYLPDYWGQGTLVTVSS
VL: DVVMTQSPLSLPVTLGQPASISCRSSQSLLHSNGYNYLDWYLQRPGQSPHLLIFLGSNRASGVPDRFSGSGSGTDFTLKISRVEAEDVGIYYCMQALQTPPTFGQGTKVEIK
notes: Fully human Fab from a non-immunized phage library, made in E. coli TG-1, His-tag purified and detected by its myc tag; also called Fab ESC14
The koff is a measure of how fast the partners let go of each other. By kon is commonly meant the rate constant with which the complex forms. Consider B1, for which the Kd stood at 210 nM in assay [1] and 251 nM in assay [2]. Besides, the koff in assay [3] was found to be 0.125 s⁻¹. Besides, the kon in assay [3] turned out to be 560000 M⁻¹ s⁻¹. The binding result in assay [4] was “no binding (tested: 100 nM)”.

B2: ESC14 IgG1 (antibody, V domains shown)
VH: B1 VH
VL: B1 VL
notes: Variable domains cloned into a full human IgG1 format and produced in NS0 cells
With B2, in assay [5], the Kd worked out at 1.1 nM.

B3: ESC11 IgG1 (antibody, V domains shown)
VH: QVQLQESGPGLVKPSETLSLTCTVSGGSISSNNYYWGWIRQTPGKGLEWIGSIYYSGSTNYNPSLKSRVTISVDTSKNQFSLKLSSVTAADTAVYYCARGARWQARPATRIDGVAFDIWGQGTMVTVSS
VL: ETTLTQSPGTLSLSPGERATLSCRASQTVTRNYLAWYQQKPGQAPRLLMYGASNRAAGVPDRFSGSGSGTDFTLTISRLEPEDFAVYYCQQFGSPYTFGQGTKVEIK
notes: Variable domains cloned into a full human IgG1 format (modified pEE12.4 vector) and produced in NS0 cells; also called ESC11 DyLight 488
Regarding B3, the Kd in assay [5] worked out at 1.1 nM.

B4: ESC11 Fab fragment (Fab, V domains shown)
VH: B3 VH with Q1H
VL: B3 VL
notes: Fully human Fab from a non-immunized phage library, made in E. coli TG-1, His-tag purified and detected by its myc tag; also called Fab ESC11
Consider B4, for which the Kd in assay [1] stood at 10 nM. Also, the Kd in assay [2] came out at 51 nM. Further, the binding result in assay [4] was “no binding (tested: 100 nM)”. In addition, in assay [6], the dissociation rate constant (koff) is 0.017 s⁻¹ and the kon amounted to 1.6e+06 M⁻¹ s⁻¹.

The values above are taken from patent publication US20120258119A1 (LUDWIG INSTITUTE FOR CANCER RESEARCH, published 2012).
